Data taken from the supplement of paper PMC9170038.

System: MS2 coat protein
Test: apparent KD of MS2 coat protein; designed switch direction (-1 OFF switch, 1 ON switch): -1; higher = weaker reporter binding
Summary of the method: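 Transcription of designed RNA switches on Illumina chips was done by stalled E. coli RNA polymerase. SNAP-549-labelled MS2 coat protein was then titrated in doubling steps from 0.7 or 1.5 nM to 3 µM, with steps of 0.8–1.5 h at the lowest and 10–20 min at the highest concentration. The per-design median over clusters of curve-fitted normalised fluorescence is reported as apparent KD.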

[1] = Eterna round: R95, input ligand: microRNA oligo, concentration not stated
[2] = Eterna round: R95, input ligand: FMN 200 uM
[3] = Eterna round: R95, input ligand: none
[4] = input ligand: microRNA oligo, concentration not stated

Sequence | apparent KD of MS2 coat protein (input ligand: FMN 200 uM) [nM] | apparent KD of MS2 coat protein (input ligand: none) [nM] | other results
CCGGAAGUACAGGAUAUCGUAACGGAAACGUUACGAGAAGGGUAUACAUGAGGAUCACCCAUGUGUCCUACCGG [Mat - Exclusion 6 - Eli Mod - D93] (puzzle: Exclusion 6) |  |  | apparent KD of MS2 coat protein [1]: 22.6 nM
CCGGAAUUGGAGGAUAUAGGAGUCGAUAGACACCUAGAAGGUCAGACAUGAGGAUCACCCAUGUGUCCUACCGG [Fiskers Ex 6 - 87] (puzzle: Exclusion 6) |  |  | apparent KD of MS2 coat protein [2]: 19.9 nM; apparent KD of MS2 coat protein [1]: 18.3 nM; apparent KD of MS2 coat protein [3]: 17.8 nM
CCGGCGGUAGGAUAUACAAUUGUAAAAGGCAGGUGGUGUCAACAUGAGGAUCACCCAUGUAGAAGGACCUUAAA [EX2 C.26] (Eterna round: R97, puzzle: Exclusion 2) | 38.4 | 22.4 | 
CCGGCUUAGGAGGAUAUCAGAGUCGAAAGACUCUGAGAAGGCCUAACAUGAGGAUCACCCAUGUGUCCUACCGG [Mod of Eli 7 - Jieux - Exclusion 6] (Eterna round: R97, puzzle: Exclusion 6) | 81.5 | 25.1 | 
CCGGUUGGCGCAGGAUAUACAUGAGGAUCACCCAUGUUCAUGAGCAUCAGCCAUGAGUUUUUGUUGUAGAAGGGUGGCCCGGCC (Eterna round: R96, puzzle: Exclusion NG 2) | 19.6 | 23.5 | apparent KD of MS2 coat protein [4]: 15.6 nM
CCGUCGAUAGGAUAUACUCCAAGCGAUGGGUGAACCUUUGGACUUGAGGAUCACCCAAGUAGAAGGAUUGACUU [Aorbete] (Eterna round: R97, puzzle: Exclusion 2) | 122 | 71 | 
CCUACUUACUAGGAUAUCAGAGUCGAAAGACUCUGAGAAGGAGUAACAUGAGGAUCACCCAUGUGUCCUAUAGG [Mod of Eli 11 - Jieux - Exclusion 6] (Eterna round: R97, puzzle: Exclusion 6) | 52.2 | 24.2 | 
CCUAGACAUGAGGAUCACCCAUGUGAGGAUAUGAUGCGAAUAAAGAAAGAAGAAAGCAUCAGAAGGCACAUAUG [Fiskers Ex 1 - 2] (puzzle: Exclusion 1) |  |  | apparent KD of MS2 coat protein [2]: 130 nM; apparent KD of MS2 coat protein [1]: 41.2 nM; apparent KD of MS2 coat protein [3]: 49.4 nM
CCUAGUUGGUAAGGAUAUCCUACACUGUUCUGACCCGUGCAAGCUACAUGAGGAUCACCCAUGUGGGAGAAGGUGCGUCAACGC [Design 12] (Eterna round: R96, puzzle: Exclusion NG 2) | 29 | 29.2 | apparent KD of MS2 coat protein [4]: 25.3 nM
CCUAUGUGAGGAUAUGGUGUUGGCCACAAGGAAAAGCUCCUCCAGAAGGCACAUGAGGAUCACCCAUGUCGUGG [Jolly's Folly 25 - Jieux - Exclusion 4] (Eterna round: R96, puzzle: Exclusion 4) | 212 | 61.1 | apparent KD of MS2 coat protein [4]: 48.2 nM
CCUCAUGGGCAGGAUAUCAGUCGAAAGUUUAUAUGAGAAGGGCCAACAUGAGGAUCACCCAUGUAAUCCCUGAC [EX6 C.14] (Eterna round: R97, puzzle: Exclusion 6) | 66.7 | 27.8 | 
CCUCUACAUGAGGAUCACCCAUGUGAGGAUAUAGACCGGCCUAACGCGGGCUCGGGAGCUAGAAGGCACAUAGA [EX1 C.7] (Eterna round: R97, puzzle: Exclusion 1) | 70.8 | 21.8 | 
CCUCUACAUGAGGAUCACCCAUGUGAGGAUAUCUCGGAACAACCACUUAAGGCACUCCAGAGAAGGCACGUGUA [Onsote] (puzzle: Exclusion 1) |  |  | apparent KD of MS2 coat protein [1]: 15.5 nM
CCUUAAAUUGUAAGGAUAUUAAAGCUGCUGAGUUAUAAGAAGGUACAUGAGGAUCACCCAUGUUCGGCAGGGUC [Qulexeri] (puzzle: Brourd's mod of Exclusion 4) |  |  | apparent KD of MS2 coat protein [1]: 17.1 nM
CCUUAGGGAGGAUAUACAUGAGGAUCACCCAUGUACCGCGGCGCGUUCACACGGGUGGGUAGAAGGCCCUCACU [Colors] (Eterna round: R97, puzzle: Exclusion 3) | 463 | 540 | 
CCUUAGUAAGGAUAUCAGCUUAUAGAGUUGGUAAUGAGAGCUGAGAAGGUACAUGAGGAUCACCCAUGUUAGUU [JL Zatite mod 4] (puzzle: Exclusion 4) |  |  | apparent KD of MS2 coat protein [1]: 20.3 nM
CCUUGACAUGAGGAUCACCCAUGUGAGGAUAUCCUGCGAGGAUCAAAAGAUCCUCGUGGGAGAAGGCAUAUGAA [Omei Ex1 A7] (Eterna round: R97, puzzle: Exclusion 1) | 32.6 | 16.7 | 
CCUUGACAUGAGGAUCACCCAUGUUAGGAUAUAACAUUUGACACUACAGUAUGAAGUGUUAGAAGGGAUAUGGG [-22.5, -21 kcal, A 32%] (Eterna round: R97, puzzle: Exclusion 1) | 39.4 | 29.8 | 

Sequence | apparent KD of MS2 coat protein (input ligand: FMN 200 uM) [nM] | apparent KD of MS2 coat protein (input ligand: none) [nM] | other results
CCUUGUGUUGAGGAUAUGCGCCGGCUCGCUGGCGCAGAAGGCGGCACAUGAGGAUCACCCAUGUCAGUUCGCGU [salish99_ex6_r004_014] (Eterna round: R97, puzzle: Exclusion 6) | 431 | 29.8 | 
CCUUUGUCAGGAUAUCGAAAAGGGAGGCCAAAGGCCUCCGGUGAGAAGGGACAUGAGGAUCACCCAUGUGAAAA [Soonbidibe] (puzzle: Exclusion 4) |  |  | apparent KD of MS2 coat protein [1]: 57.5 nM
CCUUUGUGAGGAUAUCGUUGGCCAGACAUGAGGAUCACCCAUGUGGCUGGAACUCAUGGACGAGAAGGCACCUCUU [Eternabot (L2) Solution 52] (Eterna round: R97, puzzle: Exclusion 5) | 338 | 399 | 
CGAAAGUUAGGAUAUGCCCGGAACGACAUGAGGAUCACCCAUGUUAGCAAGGGACCUGGCGCAGAAGGAACGGAUA [EX5 C.20] (Eterna round: R97, puzzle: Exclusion 5) | 20.2 | 19.3 | 
CGAAGUAGAAACCGAUCCUACAUGAGGAUCACCCAUGUAGCAAGACGUGCACGCGAAGCUCGUCAGACUACCAGAAA [salish99_TOv1_r3_016] (puzzle: Sensor v3, turn-off variant 1) |  |  | apparent KD of MS2 coat protein [2]: 200 nM; apparent KD of MS2 coat protein [1]: 213 nM; apparent KD of MS2 coat protein [3]: 304 nM
CGACCACAUGUAAACUGACACAUGAGGAUCACCCAUGUCAAGCUACGUUAGACUAAGCUCGCUACUACUCGUCUUAA [Eternabot (L2) Solution 4] (Eterna round: R97, puzzle: Sensor, turn-off variant 1) | 66.8 | 69.8 | 
CGAGCUCAUGUGAGGAUAUACCUAUGGAUACAUAGGUAGAAGGCACAUGAGGAUCACCCAUGUCCUAGAGCUCG [jl-bmx4-4.58] (Eterna round: R97, puzzle: Brourd's mod of Exclusion 4) | 821 | 138 | 
CGAGGUAGAGGAUAUACGUGGAUGUAAAUUCAUGUUAAUCUACAUGAGGAUCACCCAUGUAGAAGGCUAUAGCG [JR_Ex2_Sub076] (Eterna round: R97, puzzle: Exclusion 2) | 27.8 | 30.6 | 
CGAUGCAAAGUAAGGAUAUGCUUCCGGAAACGGAGGCAGAAGGUACAUGAGGAUCACCCAUGUUAAAAGCAUCG [Explosion 3 - Jieux - Brourd's mod of Exclusion 4] (Eterna round: R97, puzzle: Brourd's mod of Exclusion 4) | 16.3 | 14.2 | 
CGAUGCUCGAAUCCACAUGAGGAUCACCCAUGUCGAGUUAGCGAGGAUAUCGGUGACACAUAGUAUGAGAAGGCGCGAACCUGA [Ex NG3 #24] (Eterna round: R96, puzzle: Exclusion NG 3) | 103 | 41.7 | apparent KD of MS2 coat protein [4]: 28 nM
CGAUGUUAUGUCAGGAUAUGCGUUGCGAAAGCAAUGUAGAAGGGACAUGAGGAUCACCCAUGUGCUAACCAUCG [Omei A 10] (puzzle: Brourd's mod of Exclusion 4) |  |  | apparent KD of MS2 coat protein [1]: 17.2 nM
CGCAAAACCGUAAGGAUAUCCUUUCCGAAAGGGACGGAGAAGGUACAUGAGGAUCACCCAUGUCCUCCGAGCUG [Eternabot (Original) Solution 18] (Eterna round: R97, puzzle: Brourd's mod of Exclusion 4) | 20.6 | 18 | 
CGCAUGUGAGGAUAUUAGUAGUAGUCAGAAAAGACUAUUACUGAGAAGGUACAUGAGGAUCACCCAUGUAUCCG [Mat - Exclusion 4 - Eli Mod - D46] (Eterna round: R97, puzzle: Exclusion 4) | 25.7 | 13.9 | 
CGCCGAGUGUUAGGAUAUUACAAGCAUAAGCGGUAAGAAGGAACAUGAGGAUCACCCAUGUACUGUCCCAUCGGGACAGGUUUC [Qule] (Eterna round: R96, puzzle: Exclusion NG 1) | 292 | 76.8 | apparent KD of MS2 coat protein [4]: 44.3 nM
CGCUAUGCCGAGGAUAUUCUUGGUAUGCAUCUAGGAGAAGGCGGCACAUGAGGAUCACCCAUGUCAAAACAUAU [Eternabot (L1) Solution 97] (Eterna round: R97, puzzle: Exclusion 6) | 29 | 28.4 | 
CGCUGGUGAGGAUAUGGGUGUUUUUACAUGAGGAUCACCCAUGUGGAGUAGCAUGUGGGUCCAGAAGGCGCGGGUG [-24.2, -22.5 kcal, 20% A] (Eterna round: R97, puzzle: Exclusion 5) | 682 | 435 | 
CGCUGUUGAGGAUAUGGGCGUGGGUACAUGAGGAUCACCCAUGUGUUGUCGCGCGUGGGUCUAGAAGGCGGCGGUG [-29.1, -27.2 kcal, 16% A] (Eterna round: R97, puzzle: Exclusion 5) | 12.1 | 13.8 | 
